Results from patent US20020173049A1.
Non-standard residues stand in square brackets, D forms with d. No end group written: not given here. Ahx = NCCCCCC(=O)O

Target: E3α (rabbit)
Experiment: cell-based or functional assay

TCA-soluble 125I (cpm) from [125I]-lysozyme degradation in rabbit reticulocyte lysate at the 2 hour time point; no treatment 12,475 cpm: 3590 cpm
Substance: Phe-[Ahx]-Cys
